Measurements as given in US20160251695.
Changes are numbered by the printed parent chain. Names and notes keep the numbering of the source.

T1: α-fructosyl-valyl-histidyl-leucyl-threonyl-proryl-glutamic acid
T1 chain: VHLTPE

B1: fructosyl amino acid oxidase derived from Aspergillus nidulans resulting from substitution of serine at position 59 with glycine (protein)
chain: MTPRANTKIIVVGGGGTMGSSTALHLLRAGYTPSNITVLDTCPIPSAQSAGYDLNKIMGIRLRNKPDLQLSLEALDMWKNDPLFKPFFHNVGMIDVSSTEEGIEGLRKKYQSLLDAGIGLEKTNFMLESEDEILAKAPHFTQEQIKGWKGLFCGDGGWLAAAKAINAIGQFLKEQGVKFGFGGAGTFKKPLFADAHEKTCIGVETVDGTKYYADKVVLAAGAWSSTLVDLEEQCVSKAWVFAHIQLTPAEAAAYKNTPVIYDGDYGFFFEPNENGIIKVCDEFPGFTHFKMHQPYGSPAPKPISVPRSHAKHPTDTYPHASEVTIKKAINRFLPRFNDKELFNRAMCWCTDTADANLLVCEHPRWKGFYLATGDSGHSFKLLPNIGKHVVELLEERLESVFKDAWRWRPGSGDALKSRRAAPAKDLADMPGWRNEAKM
B2: AnFX-61D/62H/101K/105K/109L/112K/355S (protein)
chain: B1 chain with R61D, L62H, E101K, G105K, K109L, S112K, A355S
B3: AnFX-61D/105K/109L (protein)
chain: B1 chain with R61D, G105K, K109L
B4: ketoamine oxidase derived from Neocosmospora vasinfecta (protein)
chain: MTTPRKETTVLIIGGGGTIGSSTALHLLRAGYTPSNITVLDTYPIPSAQSAGNDLNKIMGIRLRNKVDLQLSLEARDMWRNDALFRPFFHNTGRLDCESSAEGVEGLRREYQKLVEAGVGLEETHEWLDSEEAILEKAPLLQREEIEGWKAIWSEEGGWLAAAKAINAIGEELQRQGVRFGFGGAGSFKRPLFADDGTTCIGVETVDGTQYHADKVVLAAGAWSPALVDLEEQCCSKAWVYAHMQLTPEEAAVYKGCPVVYHGDVGFFFEPNENGVIKVCDEFPGFTRFKQHQPYGAPAPKPVSVPRSHAKHPTDTYPDASEESIKRAVSTFLPRFKDKPLFNRALCWCTDTADSALLICEHPRWKNFILATGDSGHSFKLLPIIGKHVVELVEGRLADDLAEAWRWRPGQGDARKSIRAAPAKDLADMPGWKHDQDSESR
B5: NvFX-62D/106K/110L (protein)
chain: B4 chain with R62D, G106K, E110L
B6: fructosyl peptide oxidase derived from Eupenicillium terrenum (protein)
chain: MAHSRASTKVVVVGGGGTIGSSTALHLIRSGYTPSNITVLDVYKTPSLQSAGHDLNKIMGIRLRNGPDLQLSLESLDMWQNDELFKPFFHQVGMIDCSSSKEGIENLRRKYQTLLDAGIGLEKTNVWLESEDEILAKAPNFTREQVKGWKGLFCTDGGWLAAAKAINAIGIFLQDKGVKFGFGDAGTFQQPLFAADGKTCIGLETTDGTKYFADKVVLAAGAWSPTLVDLEDQCVSKAWVFAHIQLTPKEADAYKNVPVVYDGEYGFFFEPDEYGVIKVCDEFPGFSRFKLHQPYGAASPKMISVPRSHAKHPTDTYPDASEVTIRKAIARFLPEFKDKELFNRTMCWCTDTADANLLICEHPKWKNFILATGDSGHSFKLLPNIGKYVVELLEGSLSQEMAGAWRWRPGGDALRSRRGAPAKDLAEMPGWKHDAHL
B7: EFP-T5-R62D (protein)
chain: B6 chain with R62D
B8: fructosyl peptide oxidase derived from Phaeosphaeria nodorum (protein)
chain: MAPSRANTSVIVVGGGGTIGSSTALHLVRSGYTPSNVTVLDAYPIPSSQSAGNDLNKIMGVSLRNPVDLQLALEARQMWNEDELFKKFFHNTGRLDCAHGEKDIADLKSGYQALVDAGLDATNEWLDSEDEILKRMPLLSRDQIKGWKAIFSKDGGWLAAAKAINAVGEYLRDQGVRFGFYGAGSFKAPLLAEGVCIGVETVDGTRYYADKVVLAAGAWSPTLVELHEQCVSKAWVYGHIQLTPEEAARYKNSPVVYNGDVGFFFEPNEHGVIKVCDEFPGFTRFKMHQPFGAKAPKRISVPRSHAKHPTDTIPDASDVSIRRAIATFMPQFKNKKMFNQAMCWCTDTADAALLICEHPEWKNFVLATGDSGHSFKLLPNIGKHVVELLEGTLADDLAHAWRWRPGSGDALKSRRSAPAKDLADMPGWNHDKPRANL
B9: PnFX-62D/63H/106K/110L/113K/351S (protein)
chain: B8 chain with S62D, L63H, D106K, G110L, A113K, A351S
B10: PnFX-62D/106K/110L/113K (protein)
chain: B8 chain with S62D, D106K, G110L, A113K
B11: fructosyl amino acid oxidase derived from Aspergillus oryzae RIB40 (protein)
chain: MTVTKSSSILIIGAGTWGASTALHLGRRGYTNVTVLDPYTVPSAISAGNDVNKIISSGQYSNKKDEIEVNEILAEEAFKGWTTDPLFKPYYHDTGVVMSACSSAGLDRLGIRVRPEEEPDVSEVTKPEHFRQLAPAVLKGNFPGWRGYHIRSNAGWAHARNALVAAIREAEKLGVKFVTGTQGRVITLIFENNDVKGAVTADGKIWRAEQTVLCAGANAAQFLDFKDQLRPTAWTLAHIRLKPEERALYKNLPVIFNIEKGFFFEPDEERGEIKICDEHPGYTNMVKSADGHLTSLPFEKTQIPKESEARVRALLSETMPQLADRPFSFARVCWCADTANREFIIDRHPEHPSLVLGCGASGRGFKYLPSIGNLIVDAIEDKVPEKVHKLTRWSPDIAVDRKWRDTLGRFGGPNRVMDFHDVKEWTNVQNKDTAKL
B12: CFP-T7-H14 (protein)
chain: MTSNRADTRVIVVGGGGTIGSSTALHLVRSGYAPANITVLDTFEIPSAQSAGHDLNKIMGIDLRNKVDLQMSLEARQMWKEDELFQPFFHNTGRMDCEHTPEGIEDLKKLYQRLHDAGAGLEKTHAWLDNEDEILSKMPLLQRDQIQGWKAIWSQDGGWLAAAKAINAIGQFLKERGVKFGFGGAGSFKQPLFDDEGTTCIGVETADGTKYYADKVVLAAGAWSPTLVDLEDQCCSKAWVYAHIQLTPEEAAEYKGVPVVYNGEFGFFFEPDEFGVIKVCDEFPGFSRFKEHQPYGAPSPKRISVPRSHAKHPTDTYPDASEVSIKKAIATFLPRFQDKELFNRALCWCTDTADAALLMCEHPKWKNFILATGDSGHSFKILPNVGKYVVELIEGRLPEEMAYQWRWRPGGDALKSRRAAPPKDLADMPGWKHDPKL
B13: CFP-T7-H24 (protein)
chain: B12 chain with L63A, D106K, R113K
B14: CFP-T7-H36 (protein)
chain: B12 chain with L63H, D68N, E102K, D106K, R113K, A355S
B15: CFP-T7-H27 (protein)
chain: B12 chain with L63K, D106K, R113K
B16: CFP-T7-H26 (protein)
chain: B12 chain with L63H, D106K, R113K
B17: CFP-T7-H25 (protein)
chain: B12 chain with L63D, D106K, R113K
B18: CFP-T7-H29 (protein)
chain: B12 chain with L63H, D106K, R113K, A419K
B19: CFP-T7-H37 (protein)
chain: B12 chain with L63H, D68N, E102K, D106K, R113K, A355S, A356T
B20: CFP-T7-H28 (protein)
chain: B12 chain with L63H, E102K, D106K, R113K
B21: amadoriase exhibiting 95% sequence identity with ketoamine oxidase derived from Curvularia clavata (protein)
chain: MAPSRANTSVIVVGGGGTIGSSTALHLVRSGYTPSNITVLDAYPIPSSQSAGNDLNKIMGIRLRNKVDLQLSLEARQMWREDDLFKEYFHNTGRLDCAHGEEGLADLRQAYQALLDANAGLEETTEWLDSEDEILKKMPLLSRDQIKGWKAVYSQDGGWLAAAKAINAIGEYLRAQGVKFGFGGAGSFKQPLLAEGVCIGVETVDGTRYYADKVVLAAGAWSPTLVELHEQCVSKAWVYGHIQLTPEEAAEYKNSPVVYNGDVGFFFEPNEHGVIKVCDEFPGFTRFKMHQPFGAKAPKRISVPRSHAKHPTDTIPDASEKSIRKAIATFLPKFTEKELFNRHLCWCTDTADAALLICEHPEWKNFVLATGDSGHSFKLLPNIGKHVVELLEGTLADDLAHAWRWRPGSGDALKSRRSAPAKDLADMPGWKHDDVVKSKL

Molecular target: T1, α-fructosyl-valyl-histidyl-leucyl-threon …
Conditions: not given

**Q.** Which Specific activity (U/mg), 1 mM αF6P does the source give for B1 here?
**A.** The Specific activity (U/mg), 1 mM αF6P was 0 U/mg.

**Q.** For B2, which Specific activity (U/mg), 1 mM αF6P is on record?
**A.** The Specific activity (U/mg), 1 mM αF6P was 0.283 U/mg.

**Q.** With B3 as the protein, how does the Specific activity (U/mg), 1 mM αF6P read?
**A.** The Specific activity (U/mg), 1 mM αF6P was 0.106 U/mg.

**Q.** With B4 as the protein, how does the Specific activity (U/mg), 1 mM αF6P read?
**A.** The Specific activity (U/mg), 1 mM αF6P was 0 U/mg.

**Q.** B5 was tested. Which Specific activity (U/mg), 1 mM αF6P did it give?
**A.** The Specific activity (U/mg), 1 mM αF6P was 0.003 U/mg.

**Q.** With B6 as the protein, how does the Specific activity (U/mg), 1 mM αF6P read?
**A.** Its Specific activity (U/mg), 1 mM αF6P is 0 U/mg.

**Q.** With B7 as the protein, how does the Specific activity (U/mg), 1 mM αF6P read?
**A.** Its Specific activity (U/mg), 1 mM αF6P is 0.0043 U/mg.

**Q.** B8 was tested. Which Specific activity (U/mg), 1 mM αF6P did it give?
**A.** Its Specific activity (U/mg), 1 mM αF6P is 0.0091 U/mg.

**Q.** B9 was tested. Which Specific activity (U/mg), 1 mM αF6P did it give?
**A.** The Specific activity (U/mg), 1 mM αF6P was 0.667 U/mg.

**Q.** Which results are given for B10?
**A.** Specific activity (U/mg), 1 mM αF6P: 0.125 U/mg; specific activity on αF6P, fold over PnFX before mutation: specific activity on αF6P was elevated by 13.7 fold

**Q.** How did the Specific activity (U/mg), 1 mM αF6P turn out when B11 was run?
**A.** Its Specific activity (U/mg), 1 mM αF6P is 0.0022 U/mg.

**Q.** Which αF6P oxidation activity ratio (relative value (CFP-T7-H6 = 100)) does the source give for B12 here?
**A.** The αF6P oxidation activity ratio (relative value (CFP-T7-H6 = 100)) was 183.

**Q.** Which αF6P oxidation activity ratio (relative value (CFP-T7-H20 = 100)) does the source give for B13 here?
**A.** Its αF6P oxidation activity ratio (relative value (CFP-T7-H20 = 100)) is 123.

**Q.** For B14, which Specific activity (U/mg), 1 mM αF6P is on record?
**A.** Its Specific activity (U/mg), 1 mM αF6P is 4.65 U/mg.

**Q.** How did the αF6P oxidation activity ratio (relative value (CFP-T7-H20 = 100)) turn out when B15 was run?
**A.** Its αF6P oxidation activity ratio (relative value (CFP-T7-H20 = 100)) is 7.

**Q.** Which results are given for B16?
**A.** αF6P oxidation activity ratio (relative value (CFP-T7-H20 = 100)): 142; αF6P oxidation activity ratio (relative value (CFP-T7-H26 = 100)): 100

**Q.** With B17 as the protein, how does the αF6P oxidation activity ratio (relative value (CFP-T7-H20 = 100)) read?
**A.** Its αF6P oxidation activity ratio (relative value (CFP-T7-H20 = 100)) is 24.

**Q.** For B18, which αF6P oxidation activity ratio (relative value (CFP-T7-H26 = 100)) is on record?
**A.** The αF6P oxidation activity ratio (relative value (CFP-T7-H26 = 100)) was 102.

**Q.** For B19, which Specific activity (U/mg), 1 mM αF6P is on record?
**A.** The Specific activity (U/mg), 1 mM αF6P was 7.19 U/mg.

**Q.** What does the source list for B20?
**A.** αF6P oxidation activity ratio (relative value (CFP-T7-H26 = 100)): 117; αF6P oxidation activity ratio (relative value (CFP-T7-H28 = 100)): 100

Same assay, conditions: scale: relative value

**Q.** For B12, which αF6P oxidation activity is on record?
**A.** Its αF6P oxidation activity is 4.22.

**Q.** For B13, which αF6P oxidation activity is on record?
**A.** Its αF6P oxidation activity is 86.7.

**Q.** With B16 as the protein, how does the αF6P oxidation activity read?
**A.** The αF6P oxidation activity was 84.3.

**Q.** B18 was tested. Which αF6P oxidation activity did it give?
**A.** Its αF6P oxidation activity is 111.

**Q.** Which αF6P oxidation activity does the source give for B20 here?
**A.** The αF6P oxidation activity was 134.

**Q.** With B21 as the protein, how does the αF6P oxidation activity read?
**A.** The αF6P oxidation activity was 0.
